The data set has as its system T1, FabT (Enterococcus faecalis), ORF:b010fabc.
T1 sequence: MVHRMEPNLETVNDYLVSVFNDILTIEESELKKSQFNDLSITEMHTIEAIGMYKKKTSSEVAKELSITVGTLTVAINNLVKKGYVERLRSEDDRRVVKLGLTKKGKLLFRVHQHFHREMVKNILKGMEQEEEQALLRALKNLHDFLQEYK
Briefly: EMSA. The conditions noted are these: 10 nM DNA, 0.1 uM FabT, 0-10 uM acyl-ACP, 10 mM Tris-HCl pH 7.0, 50 mM NaCl, 1 mM EDTA, 1 mM DTT, 10% glycerol, room temperature, 30 min; 6% native PAGE.

As for “GTCAGGATCCGTCGACATCTGTATTCACCTCCACTGCTTTTGAAAAAAGGTTCTTTCTTTTACTAAAACGCTAAGATACATTGTACTCACAATTTGGGTATTTGTCCATCTTTTTTTCATTTGAGTAACAAACTGATGTCAAGACAATTGCAAATTACTGCAGAATTCTGAC (double strand) [E. faecalis acpB promoter]”, the binding entry was “no binding”.

The record behind these values is publication PMC9083066.
